# Results from the domain aggregation screens of Martell et al. (2025).
# Assay: soluble fraction after stress (log2 fold change); higher = more stays soluble; pooled small domains, quantitative proteomics
# Conditions: stress: pH 4
# In short: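 Small protein domains from pooled custom libraries were exposed to pH 4, then quantified with high-throughput quantitative proteomics. The fold change in how much of each domain remains soluble is read as aggregation propensity. It is given as log2, with higher values meaning more stayed soluble.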
row,Sequence,soluble fraction (log2)
1,HMEEQIEVPVQINGKVRSKLTVAPETDEKQIEALALADPKVQQQLEGKRVLKVIVAQKRLVNIVA,-0.035
2,HMEESTYQWNNFVRDFYASRVSAQYTNKLKVAAILWHHVKNTPQSKIYHDNLVSKYAEEINYFK,-0.387
3,HMEETEVPPVTGYEQSKASEVLTGKGLIPDIITVADEETAAGYVIRTDPASGEKVPSGTTVKVYVSSGP,-0.0585
4,HMEETGFYIKLQDQEVVIFHNDQVTPYEYTGIREEVLPESELEKLREGFFVEDEKELYSVLENLS,-0.412
5,HMEETLEELGKEYESAFTMYEKLWSYYKKQNYHQVNHKRSERYEILLGFVREYHPEKVEYYRELL,-0.482
6,HMEETLRALAKKISEKVLKSGRSTTLEPMNPYERRIIHSAVSEIEGVSSKSVGEEPYRKVVISSDNP,-0.0148
7,HMEETLRELAVKISKQVIKTGRNSVLEPMNPYERRIIHAVISEIEGVSSKSVGEDPNRKVVIMSTNP,-1.07
8,HMEEYTVEFVKHKVKRKQTLYTISKLYNVSIDDIIKYNSQIEGFNLSRRMELNIPVKKTLIVKNE,-0.823
9,HMEFDTEFVLRQAMHAFMQYGYAKTSMQKLKEATHLHPGSIYAAYGNKKGLFLAATEQYQKDR,-0.101
10,HMEFEYFQLRDHLYNLIMHPDKEKLKKDPDYLKLMSMAFSLLEDQNVGKDILEIAIKSIENFK,-0.674
11,HMEFLDLEIDVDATDGRLLAFLAAKGEVVSQTFNDTIITVRVRMPTGAMGQVHRSALAIRPA,-1.43
12,HMEFLDQAFLHETMRKVNQDATINLLKKVYEVPQKFIGRKVTVQYDPEDLSRVYVKDLSFPEPVTVYPV,0.12
13,HMEFNDLNDDEKAILHIMYNTGEKMTTALAARITNRGRNFASKLLKSLVKKEILEWHGTSKQDRNQYYTLA,-0.337
14,HMEFQVKVIVSSLNIRSGPGTSYDTLGTVTKGDIFTIVETNSDSTWGKMQSGGWISIKDAYVKK,-0.216
15,HMEFTFTLPRGYIDDTGMIHREGTMRLANAADEILPLKDPRVQQNPGYLTIILLARVITKLGSL,-0.165
16,HMEFTKSPLDEIAGVGPARKRALLAAFGTAKAVSQAALADLEKTPGVNAATARLVYAHFHEK,0.22
17,HMEFTVFMNSAGGSKLQVVKTVKELTGLGLKEAKAIVDGSPGPVKEGLSKADAEAMLAKLQEAGADVEL,-0.117
18,HMEFYYSDLVGMIVYDTGGNELGKVQAVLNHGAGDLLEIHGVNLKTSILIPFTKEAVPTVDIAARRIVTDP,0.00543
19,HMEGAEDMNRALALAFLRDNSRSTVAQLAEHLGSSKRSAERLVAQLKDEGVLERQGSPRAGLWIVHI,0.221
20,HMEGEVVESPLVGVAYLASGPDKPAFVQVGDSVSKGQTLLIIEAMKVMNEVPAPRDGIVTEILV,-0.279
21,HMEGFSAGQFVRASVDNTAFYLKRPKGDAVADKLLRRGASMKVISASGDYLKVELDSGEVGFVPPVMVE,0.0892
22,HMEGIWAVFYDGKPINLKSSSLVANYPGPKYKKVSFSNPGHAENLAKKLNAQHNTDKFGVYLLKSGDKFS,0.219
23,HMEGMSIYVTVNGDMVHLTGKMSYVFVDVFEHIDFDLSKPQGSGIVTKLNGRDAQYMEEIRSGDMIEIYWR,-0.669

row,Sequence,soluble fraction (log2)
1,HMEGNLVEIFEDAFGRTMSTMDIEYINQFKRTGYDDEMIVSALREAVKSNALSFRYIERVLENWAHS,-1.83
2,HMEGTEVTTEPPGAQIEFDGKQFGPTPTRVPGLAAGKQFRITLAGYQEAKPKLKNNPKEGEPLSFTLTAI,0.264
3,HMEGTVQQDKFDAYKAKFEDAISNDLNTSMAITIIYDLLKDDMNDKTKLALINDFDKVLSLNLTTA,-1.17
4,HMEGVTVPDVTRISLDEAEELLTSYGLRFEVADRRANSAFPGNYVIDQAPSAEVIVKPNRKIYLTVNAA,-0.188
5,HMEHDTVLSKVFRRLREAHVPLSLDDIYQGLRKTVNNNSEIREKIVTLQERGLVAEILGPKGGKKYVAKPT,0.199
6,HMEHIEVDTSHIAVGSKVKHKAFGLGEITDKGNTYVFVKFDGQAIPKKFQFPGAFTQGFLTK,0.154
7,HMEHPNNTELTQKLELGTELMQYGDYNYALKVFNNVIDSDPEWSEAWNKRATVYFLMSQFTDSLSDIDRV,-0.17
8,HMEIDMQEGIKTIILMMKEHNITPSEAMKIYKSANGDIHYISKIYNHFKNKGADNFVALMIKMVKPGEFIE,-0.398
9,HMEIEETKKNSRTKIPENFDYKLINGLSNEIRAKLELIRPIDLLQASRIDGMTPAALTLVHLWIKKYSG,-0.419
10,HMEIEIPEELQNKFAEIPELKTAFESLTPGRQRAYVLYFSQPKQSKTREARIEKYIPHILDGKGMN,0.0591
11,HMEIESAHAQVLGVREIAASGATQHWIAFRFSDGHQRELLATPSQADVIFRGQQGVVHFAGDRLTGWIPE,-0.198
12,HMEIEYFDDEELDAYKGRKSDSYTDEEAAQFAEVLYTMRPSEVKDWTASLTLRGISMPDQIKDEAIMLME,-0.984
13,HMEIGELITLYRKQAGLTIDELSEKANVPKGTLNKIIGGITKAPTLETMRSIAYALGKKLADFDN,0.107
14,HMEIHQVEFGGKVISFVLERKPVKNVNLHIKPDMTVMVSANEKVPLDFILGFVKQKAAWILKNIQFFEDV,-1.08
15,HMEIKDQADAYGKMEPASAAAILSEMTNDLTLVAKILDSMQTSKSALILQNMKPTTAAQVTTKMTAMK,-0.11
16,HMEILTRQLTHYLHLLPPAQQEVVRGVYLQDQTLQEIADRVQIPLGTVKSRLRLGLSKLREQIEQEHE,0.291
17,HMEIMELPEYVVRSGSGLDAFREKWDLWDQGLMYDLKDKRAVFPIFIDGVMIDAVGRALAGAEPKWLRYTG,-0.554
18,HMEINEDEIYEKIMIEIEQDNKVKSTWAKALSQSDGNKDKAESLYISMRFEELKYHQSYQKEELNLKDNQQ,-0.989
19,HMEIPRYRLIGADGGRMVDLGEGQGAIPPVDVKRGMIDMPGLGKGYYTADGKSAVITNADGSKTRVL,0.304
20,HMEIRNLMPILSHFLNENDIKLSRESVNLVLDRASGNRENLNNELKKIHDYSFSNKIIDFETIKKLTNLG,-0.215
21,HMEISLAETLRSSLHMILGWYQNTGDKKLLELIRLHLQAYVNTGNSLNPEMEEIRAALETLGEGKEAFRP,-1.02
22,HMEISNWLEEIGLSRYTETLSEFPLEDLVEFTDDDFKELGVLTPHRKKLLAAIATLNNDASSN,-1.12
23,HMEISTEVPLRGGTISEEALEALNRLPGVTASNIDGKSISVDVADNAELRVSDINQVLAVHSPDTRV,-0.707

row,Sequence,soluble fraction (log2)
1,HMEITRDTVIQWLEAERRSQTWLSKQLGVSVQAVSNWLREKNPQTISASAQITIRALMEEDAAK,0.00665
2,HMEIVQVIAQNIQDLLDKHKISVSELSGYLGISRQTLTNYLKTTSTIDSVQLVKIADFFNIPAEYLLKDH,-0.659
3,HMEIVSTEEKIKRAAEQVFLLRGLEGARMQEIADVAGINKAMLHYYFRNKETLFDVILSEKL,-1.14
4,HMEIYEEDRTKVVNDLMDQILNRQITMDAAATKFINIRNSLGTTITKEDEQNLEMLRGLIFDKT,-1.17
5,HMEIYIDGNKYVGELRNGKPNGRGTITYTGDGSKYVGEWKNGKRYGRGKMAYTNGTTKEGVWKDDEFLYAT,0.377
6,HMEKAKVPSVIGMTEANAKRTIRDAGFKVGRVTRVESEAYDKGKVIEQQYEAGSELEKKKPISIVVSKGKK,0.152
7,HMEKALEVKYQKMVELLGDQSTFYVDEVKKIFPEMKKSSLYWNMSKLVEGGYLRRIRNGVYAFNE,-0.124
8,HMEKEKIKEALIGYFEAEPEEKFTVQELADKLKMNKAGQFNFVVQAVAQLEHDKVITLDDEGNFSLVRHE,-0.967
9,HMEKERYDTGIGELNRVLGGGLVKGSLILISGDPGIGKSTLLLQTANNISKKYGKVLYVSGEESEEQIKIR,-0.722
10,HMEKGWYKLGQDSYYVDDDGKIHKGWLELDGKKYYFDQEGKMVTGTVNIDGKDYTFNEKGELYVS,-0.029
11,HMEKIELKTVIPENLKKKRLDFALSELFPEHSRSRIQSWIKEGSVMVNSKNYRQRDLVDAGDVVEINTEQK,0.321
12,HMEKIIGQIQINQRGNGYVIVPNVKDDIFVKRENLNSARQGDRVAVQLLSRPNQKPEGLVQEVLERGQ,0.071
13,HMEKILSYKALMNDAGKRIDQFLANNEKDISRTRIKSLILEGSLKLDNNIINDPSYKIKENDVFTLFIPEA,0.0775
14,HMEKIRIQKYLSERGVMSRRAADSALAEGRIAVNGVTARPGDKIDPSSDTLTIDGRIVTTGTAP,≥ 0.43
15,HMEKKEWVIYITGAVKKPGVYRIPEGARVYQALEAAGGFTPEADRDAVNLAAMLQDGAHIKFPAVGEEV,0.0865
16,HMEKLNYSISNEEQGQRIDKYLSLMIEGKSRSFIQGLIDDKKVMANGKVIKSNYKLKNNDEITVEMPDPI,0.0918
17,HMEKNILPDTSPEKQYEFATSFLKVGDYSTAERAFREFVINNSEHKLAGNAQYWYAETFRIRQ,0.148
18,HMEKSQIHLIHTRYVNPEQLVPILSMVIPAENIYVKSDSNLIIINGSSEMLREVESIVSKLDVPS,-0.687
19,HMEKSSALRAKEAFMALYHDGKFKPGTKIPSESNMAELLGVSRETWRKALALLRGDGVLYSKHGSGTYLLE,-0.0262
20,HMEKTKLPNLVDFTYRQAEALLQTHGLKVGKVERVPDVGQTVIKAKYKGKVISWGTELNKGEKIDLVIGKG,0.13
21,HMELADLPSAQIREILAYVYRAPLEKRRDPSIHWLLIAAHKLTLPLLDRLDPADARALGERYGADYP,-0.644
22,HMELARLRPELDGNDIMRILGVPPGPVVGRAYTYLLELRINQGELGRERVTQLLLDWAAAEGISA,-1.8
23,HMELDMTFGEKIQKLRKESGLSQEELSYQLGVSRQAISKWERDSGYPETEKIVRMSKIFDVTLDYLLNE,-1.06
